Columns and labels:
[1] = molecular target: T1, Human CD26 on transfected CHO cells (human, UniProt P27487 1-766); test: flow cytometry on human CD26-transfected CHO cells, antibody 50 nM, goat anti-human IgG-PE
T1 construct: whole, on cells; also called CHO26; CD26 positive CHO cells

[2] = molecular target: T2, Human CD26-Fc fusion protein (human); test: ELISA, CD26-Fc coated, purified IgG1 kappa antibody in 3-fold steps, goat anti-human kappa-HRP/ABTS
T2 construct: also called CD26/beads

[3] = molecular target: T2, Human CD26-Fc fusion protein; test: ELISA, CD26-Fc coated, purified IgG1 kappa antibody, goat anti-human kappa-HRP/ABTS
goat anti-human IgG = test: ELISA, goat anti-human IgG coated (control plate), goat anti-human kappa-HRP/ABTS
[4] = molecular target: T2, Human CD26-Fc fusion protein; test: competition ELISA on coated CD26-Fc (5 µg/mL): ADA is varied and the blocked molecule is biotinylated CD26Ab-01D at 5 nM, read with SAHRP/ABTS

T1 sequence (P27487 whole entry): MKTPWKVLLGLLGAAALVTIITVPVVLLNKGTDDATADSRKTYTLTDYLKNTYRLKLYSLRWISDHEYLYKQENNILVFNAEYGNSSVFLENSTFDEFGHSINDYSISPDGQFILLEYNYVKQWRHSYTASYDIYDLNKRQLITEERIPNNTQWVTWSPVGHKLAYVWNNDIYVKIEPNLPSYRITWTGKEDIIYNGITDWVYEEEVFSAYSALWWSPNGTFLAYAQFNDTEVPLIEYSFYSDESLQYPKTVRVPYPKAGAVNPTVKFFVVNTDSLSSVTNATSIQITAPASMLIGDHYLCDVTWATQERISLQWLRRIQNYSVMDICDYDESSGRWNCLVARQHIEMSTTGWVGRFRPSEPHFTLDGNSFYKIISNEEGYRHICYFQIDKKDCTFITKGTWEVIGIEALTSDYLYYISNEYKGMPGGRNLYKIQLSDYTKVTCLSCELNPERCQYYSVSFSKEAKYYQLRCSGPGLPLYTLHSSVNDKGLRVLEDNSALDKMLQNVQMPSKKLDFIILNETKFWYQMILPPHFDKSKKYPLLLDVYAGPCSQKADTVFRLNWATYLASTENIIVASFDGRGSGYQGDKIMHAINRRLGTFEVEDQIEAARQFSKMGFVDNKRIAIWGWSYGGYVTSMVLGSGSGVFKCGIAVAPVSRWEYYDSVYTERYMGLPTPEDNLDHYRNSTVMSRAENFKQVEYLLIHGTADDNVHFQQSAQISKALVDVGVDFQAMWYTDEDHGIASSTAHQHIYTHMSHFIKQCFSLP
T2 sequence (chain, as listed by the source): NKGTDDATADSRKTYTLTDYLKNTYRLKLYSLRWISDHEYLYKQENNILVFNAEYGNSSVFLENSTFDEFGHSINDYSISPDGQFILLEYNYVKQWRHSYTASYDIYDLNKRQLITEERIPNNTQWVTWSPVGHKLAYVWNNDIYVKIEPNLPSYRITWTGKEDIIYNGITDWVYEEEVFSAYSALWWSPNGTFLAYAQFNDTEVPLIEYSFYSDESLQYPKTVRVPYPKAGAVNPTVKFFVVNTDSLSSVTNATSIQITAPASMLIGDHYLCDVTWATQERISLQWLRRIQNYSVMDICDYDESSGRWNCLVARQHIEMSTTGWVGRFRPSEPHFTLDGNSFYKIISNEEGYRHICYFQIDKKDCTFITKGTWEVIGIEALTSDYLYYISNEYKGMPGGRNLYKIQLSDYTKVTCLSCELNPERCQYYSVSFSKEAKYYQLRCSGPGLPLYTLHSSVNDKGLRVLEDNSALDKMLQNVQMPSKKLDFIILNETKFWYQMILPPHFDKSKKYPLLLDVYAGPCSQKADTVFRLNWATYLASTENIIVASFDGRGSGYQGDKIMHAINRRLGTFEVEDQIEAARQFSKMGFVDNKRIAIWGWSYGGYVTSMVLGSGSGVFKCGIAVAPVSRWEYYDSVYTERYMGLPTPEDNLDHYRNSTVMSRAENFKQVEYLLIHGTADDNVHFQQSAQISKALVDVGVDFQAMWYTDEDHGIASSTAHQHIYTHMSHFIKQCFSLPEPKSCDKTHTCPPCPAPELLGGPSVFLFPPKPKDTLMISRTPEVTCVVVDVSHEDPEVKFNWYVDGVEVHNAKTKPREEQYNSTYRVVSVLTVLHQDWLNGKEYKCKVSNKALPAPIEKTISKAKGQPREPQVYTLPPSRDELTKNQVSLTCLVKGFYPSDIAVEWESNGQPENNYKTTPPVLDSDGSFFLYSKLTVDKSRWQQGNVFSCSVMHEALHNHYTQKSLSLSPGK

B1: CD26Ab-01D anti-CD26 IgG1 kappa monoclonal antibody (antibody, V domains shown)
VH: EVQLVESGGGLVQPGGSLRLSCAASGFTINDSYIHWVRQAPGKGLEWVAWIWPYGGFTYYADSVKGRFTISADTSKNTAYLQMNSLRAEDTAVYYCARFLGSSSIMDYWGQGTLVTVSS
VL: DIQMTQSPSSLSASVGDRVTITCRASQDVNSNVAWYQQKPGKAPKLLIFGSGGLYSGVPSRFSGSGSGTDFTLTISSLQPEDFATYYCQQYSSYPLTFGQGTKVETKR
[1]
  MFI: 1700
[2]
  binding result: binds

B2: CD26Ab-10B anti-CD26 IgG1 kappa monoclonal antibody (antibody, V domains shown)
VH: EVQLVESGGGLVQPGGSLRLSCAASGFTISDYSIHWVRQAPGKGLEWVASIWPYGGFTSYADSVKGRFTISADTSKNTAYLQMNSLRAEDTAVYYCARFHSSSGDMDYWGQGTLVTVSS
VL: DIQMTQSPSSLSASVGDRVTITCRASQDVWGYVAWYQQKPGKAPKLLIFASGALYSGVPSRFSGSGSGTDFTLTISSLQPEDFATYYCQQYFNWPITFGQGTKVEIKR
notes: Very low production; not biotinylated
[3]
  binding result: no binding (tested: 500000 pM)
[1]
  MFI: 105

B3: CD26Ab-04A anti-CD26 IgG1 kappa monoclonal antibody (antibody, V domains shown)
VH: EVQLVESGGGLVQPGGSLRLSCAASGFAINNYSIHWVRQAPGKGLEWVASIWPYGGFTSYADSVKGRFTISADTSKNTAYLQMNSLRAEDTAVYYCARFFSSYGDMDYWGQGTLVTVSS
VL: DIQMTQSPSSLSASVGDRVTITCRASQDVSGGVAWYQQKPGKAPKLLIYGTSGLYSGVPSRFSGSGSGTDFTLTISSLQPEDFATYYCQQGGDWPITFGQGTKVEIKR
notes: Used biotinylated in some assays; also called CD26-04A
Goat anti-human IgG
  EC50 (read off the curve): ~0.4 nM
[1]
  MFI: 4360
[2]
  EC50 (read off the curve): ~1 nM

B4: Human adenosine deaminase (ADA) (enzyme, UniProt P00813 1-363, looked up)
chain: MAQTPAFDKPKVELHVHLDGSIKPETILYYGRRRGIALPANTAEGLLNVIGMDKPLTLPDFLAKFDYYMPAIAGCREAIKRIAYEFVEMKAKEGVVYVEVRYSPHLLANSKVEPIPWNQAEGDLTPDEVVALVGQGLQEGERDFGVKARSILCCMRHQPNWSPKVVELCKKYQQQTVVAIDLAGDETIPGSSLLPGHVQAYQEAVKSGIHRTVHAGEVGSAEVVKEAVDILKTERLGHGYHTLEDQALYNRLRQENMHFEICPWSSYLTGAWKPDTEHAVIRLKNDQANYSLNTDDPLIFKSTLDTDYQMTKRDMGFTEEEFKRLNINAAKSSFLPEDEKRELLDLLYKAYGMPPSASAGQNL
notes: Bought reagent; also called Human ADA (R&D systems)
[4]
  IC50 (read off the curve): ~0.01 nM

Source: patent US12497462 (IMMUNITYBIO, dated 2025)
